Experimental findings from IntAct's records for PubMed 27284196 are described below.

The labels stand for the following.
B1: Transcriptional regulator LdrP (Thermus thermophilus (strain HB8 / ATCC 27634 / DSM 579)), Q53W63 (parent)
chain: MKRFARKETIYLRGEEARTLYRLEEGLVRVVELLPDGRLITLRHVLPGDYFGEEALEGKAYRYTAEAMTEAVVQGLEPRAMDHEALHRVARNLARQMRRVQAYEAHLQTGELRARIARYLLFLADTPLSARDRQGIYVTVSHEEIADATASIRESVSKVLADLRREGLIATAYRRVYLLDLAALEREAGSALEAA
partner: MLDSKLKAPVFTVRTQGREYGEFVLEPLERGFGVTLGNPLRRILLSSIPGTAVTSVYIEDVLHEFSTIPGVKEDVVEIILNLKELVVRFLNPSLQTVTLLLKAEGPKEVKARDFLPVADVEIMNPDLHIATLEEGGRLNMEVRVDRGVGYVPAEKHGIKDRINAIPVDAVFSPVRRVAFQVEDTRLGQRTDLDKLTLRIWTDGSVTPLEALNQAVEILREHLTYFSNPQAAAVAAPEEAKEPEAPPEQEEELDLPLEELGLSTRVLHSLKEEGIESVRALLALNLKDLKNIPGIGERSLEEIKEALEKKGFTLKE

The variants in this test derive from B1. The note with it: with rpoa_thet8 rpoA.
Take E185K: the “effect of a mutation on the interaction” value is “disrupting interaction strength”.
The entry for D125K is “disrupting interaction strength”.
